Laboratory results taken from patent US20220177594A1.
Positions count from the first letter of the chain named. Each block holds one binder with its values, some of them ahead of it.

How the values were obtained:
[1] = target: Canine_OSMR_hlgG1_Fc (canine); assay: SPR Biacore
[2] = target: Feline_OSMR_hlgG1_Fc (feline); assay: SPR Biacore
Feline_OSMR_hlgG1_Fc (feline), sequence (chain, as listed by the source limits assumed, form in doubt): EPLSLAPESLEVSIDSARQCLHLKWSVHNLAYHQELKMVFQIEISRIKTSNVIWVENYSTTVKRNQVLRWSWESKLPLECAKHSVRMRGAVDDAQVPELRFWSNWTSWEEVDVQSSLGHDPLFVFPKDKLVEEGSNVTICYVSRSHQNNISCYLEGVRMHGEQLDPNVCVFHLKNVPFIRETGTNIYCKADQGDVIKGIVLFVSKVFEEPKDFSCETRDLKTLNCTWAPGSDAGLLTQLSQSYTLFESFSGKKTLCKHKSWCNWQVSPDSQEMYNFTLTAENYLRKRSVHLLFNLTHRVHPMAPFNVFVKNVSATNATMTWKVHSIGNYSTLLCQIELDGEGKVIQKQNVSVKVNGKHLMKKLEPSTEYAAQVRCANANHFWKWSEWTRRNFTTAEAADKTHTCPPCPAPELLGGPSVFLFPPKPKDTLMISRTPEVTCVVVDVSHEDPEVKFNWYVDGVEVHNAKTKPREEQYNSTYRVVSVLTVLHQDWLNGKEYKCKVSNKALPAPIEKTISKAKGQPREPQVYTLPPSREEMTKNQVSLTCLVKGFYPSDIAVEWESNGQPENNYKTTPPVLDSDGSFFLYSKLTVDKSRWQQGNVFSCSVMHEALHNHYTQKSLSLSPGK

Canine_OSMR_hlgG1_Fc (canine), sequence (chain, as listed by the source limits assumed, form in doubt): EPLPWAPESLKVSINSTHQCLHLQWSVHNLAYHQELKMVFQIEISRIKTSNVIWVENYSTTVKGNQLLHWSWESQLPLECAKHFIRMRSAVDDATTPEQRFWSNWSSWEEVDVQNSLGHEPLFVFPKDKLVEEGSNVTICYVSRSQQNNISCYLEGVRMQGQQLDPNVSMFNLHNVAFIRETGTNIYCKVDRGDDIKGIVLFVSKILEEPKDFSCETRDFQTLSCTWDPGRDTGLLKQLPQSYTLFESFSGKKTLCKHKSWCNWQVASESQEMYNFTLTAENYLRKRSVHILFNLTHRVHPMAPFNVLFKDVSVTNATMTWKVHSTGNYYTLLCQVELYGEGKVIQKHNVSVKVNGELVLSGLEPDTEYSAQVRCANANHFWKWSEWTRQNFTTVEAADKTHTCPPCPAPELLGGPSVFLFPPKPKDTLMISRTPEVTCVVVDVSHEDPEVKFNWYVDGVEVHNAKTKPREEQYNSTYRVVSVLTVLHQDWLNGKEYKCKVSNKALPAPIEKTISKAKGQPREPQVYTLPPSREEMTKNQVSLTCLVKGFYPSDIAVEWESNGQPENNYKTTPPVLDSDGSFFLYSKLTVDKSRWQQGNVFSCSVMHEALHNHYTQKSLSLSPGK

Kd [1]: 10.3 nM
koff [1]: 0.000294 s⁻¹
kon [1]: 28500 M⁻¹ s⁻¹
Kd [2]: 0.783 nM
koff [2]: 6.37e-05 s⁻¹
kon [2]: 81300 M⁻¹ s⁻¹
B1: FEL_19F07_1.1 (antibody)
heavy: DVQLVESGGDLVKPGGSLRLTCVASGFTYSDYYMAWVRQAPGKGLQWVANINYDGSSTYYLDSLKSRFTISRDNAKNTLYLQMNSLKTEDTATYYCVRGLTWDFDVWGQGTLVTVSSASTTAPSVFPLAPSCGTTSGATVALACLVLGYFPEPVTVSWNSGALTSGVHTFPAVLQASGLYSLSSMVTVPSSRWLSDTFTCNVAHPPSNTKVDKTVRKTDHPPGPKPCDCPKCPPPEAAGAPSIFIFPPKPKDTLSISRTPEVTCLVVDLGPDDSDVQITWFVDNTQVYTAKTSPREEQFNSTYRVVSVLPILHQDWLKGKEFKCKVNSKSLPSPIERTISKAKGQPHEPQVYVLPPAQEELSRNKVSVTCLIKSFHPPDIAVEWEITGQPEPENNYRTTPPQLDSDGTYFVYSKLSVDRSHWQRGNTYTCSVSHEALHSHHTQKSLTQSPGK
light: EIQMTQSPSSLSASPGDRVTITCKASQDVDTAVAWYQQKPGKVPKLLIYLASTRHTGVPSRFSGSGSGTDFTLTISSLEPEDAATYYCQQYSRFPLTFGQGTRSDAQPSVFLFQPSLDELHTGSASIVCILNDFYPKEVNVKWKVDGVVQNKGIQESTTEQNSKDSTYSLSSTLTMSSTEYQSHEKFSCEVTHKSLASTLVKSFQRSECQRE

Kd [2]: 0.108 nM
koff [2]: 4.07e-07 s⁻¹
kon [2]: 3790 M⁻¹ s⁻¹
B2: FEL_19F07_2.1 (antibody)
heavy: B1 heavy with D10N, Y29F, V97A
light: B1 light

Kd [1]: 4.99 nM
koff [1]: 0.000903 s⁻¹
kon [1]: 181000 M⁻¹ s⁻¹
Kd [2]: 1.21 nM
koff [2]: 0.000457 s⁻¹
kon [2]: 376000 M⁻¹ s⁻¹
B3: FEL_10F07_2.2 (antibody)
heavy: DVQLVESGGDLVKPGGSLRLTCVASGFTFSSYAMSWVRQAPGKGLQWVAYISSGGDYFYYADTVKGRFTISRDDAKNTLYLQMSSLKTEDTATYYCTGDPITGTFAYWGQGTLVTVSSASTTAPSVFPLAPSCGTTSGATVALACLVLGYFPEPVTVSWNSGALTSGVHTFPAVLQASGLYSLSSMVTVPSSRWLSDTFTCNVAHPPSNTKVDKTVRKTDHPPGPKPCDCPKCPPPEAAGAPSIFIFPPKPKDTLSISRTPEVTCLVVDLGPDDSDVQITWFVDNTQVYTAKTSPREEQFNSTYRVVSVLPILHQDWLKGKEFKCKVNSKSLPSPIERTISKAKGQPHEPQVYVLPPAQEELSRNKVSVTCLIKSFHPPDIAVEWEITGQPEPENNYRTTPPQLDSDGTYFVYSKLSVDRSHWQRGNTYTCSVSHEALHSHHTQKSLTQSPGK
light: DITMTQSPGSLAGSPGQQVTMNCRASQDITNYLNWYQQKPGQHPKLLIYYTSTLHSGVPDRFSGSGSGTDFTLTISNLQAEDVASYYCQQGHMLPWTFGQGTRSDAQPSVFLFQPSLDELHTGSASIVCILNDFYPKEVNVKWKVDGVVQNKGIQESTTEQNSKDSTYSLSSTLTMSSTEYQSHEKFSCEVTHKSLASTLVKSFQRSECQRE

Kd [1]: 9.13 nM
koff [1]: 0.000334 s⁻¹
kon [1]: 36600 M⁻¹ s⁻¹
Kd [2]: 0.32 nM
koff [2]: 3.55e-05 s⁻¹
kon [2]: 111000 M⁻¹ s⁻¹
B4: CAN_19F07_1.1 (antibody)
heavy: EVQLVESGGDLVKPGGSLRLSCVASGFTFSDYYMAWVRQAPGKGLQWVANINYDGSSTYYLDSLKSRFTISRDNAKNTLYLQMNSLRAEDTAMYYCVRGLTWDFDVWGQGTLVTVSSASTTAPSVFPLAPSCGSTSGSTVALACLVSGYFPEPVTVSWNSGSLTSGVHTFPSVLQSSGLYSLSSMVTVPSSRWPSETFTCNVAHPASKTKVDKPVPKRENGRVPRPPDCPKCPAPEMLGGPSVFIFPPKPKDTLLIARTPEVTCVVVDLDPEDPEVQISWFVDGKQMQTAKTQPREEQFNGTYRVVSVLPIGHQDWLKGKQFTCKVNNKALPSPIERTISKARGQAHQPSVYVLPPSREELSKNTVSLTCLIKDFFPPDIDVEWQSNGQQEPESKYRTTPPQLDEDGSYFLYSKLSVDKSRWQRGDTFICAVMHEALHNHYTQESLSHSPGK
light: EIVMTQSPASLSLSQEEKVTITCKASQDVDTAVAWYQQKPGQAPKLLIYLASTRHTGVPSRFSGSGSGTDFSFTISSLEPEDVAVYYCQQYSRFPLTFGQGTRNDAQPAVYLFQPSPDQLHTGSASVVCLLNSFYPKDINVKWKVDGVIQDTGIQESVTEQDKDSTYSLSSTLTMSSTEYLSHELYSCEITHKSLPSTLIKSFQRSEC

Kd [2]: 24 nM
koff [2]: 0.00113 s⁻¹
kon [2]: 47000 M⁻¹ s⁻¹
B5: CAN_19F07_2.2 (antibody)
heavy: B4 heavy with G15A, R19T, V23L, A40T, G42E, A88D, M93V, V97A
light: DIVMTQTPLSLSVSPGETASISCKASQDVDTAVAWFRQKPGQSPQRLIYLASTRHTGVPDRFSGSGSGTDFTLRISRVEADDTGVYYCQQYSRFPLTFGQGTRNDAQPAVYLFQPSPDQLHTGSASVVCLLNSFYPKDINVKWKVDGVIQDTGIQESVTEQDKDSTYSLSSTLTMSSTEYLSHELYSCEITHKSLPSTLIKSFQRSEC

Kd [1]: 8.3 nM
koff [1]: 0.00022 s⁻¹
kon [1]: 26400 M⁻¹ s⁻¹
Kd [2]: 0.198 nM
koff [2]: 1.12e-05 s⁻¹
kon [2]: 56700 M⁻¹ s⁻¹
B6: CAN_19F07_2.1 (antibody)
heavy: B4 heavy with G15A, R19T, V23L, A40T, G42E, A88D, M93V, V97A
light: B4 light

Kd [1]: 43.6 nM
koff [1]: 0.003 s⁻¹
kon [1]: 68700 M⁻¹ s⁻¹
Kd [2]: 41.1 nM
koff [2]: 0.00423 s⁻¹
kon [2]: 103000 M⁻¹ s⁻¹
B7: Canine_OSM (ligand)
chain: SCSDKYPELLGQLQKQADFMQHTNTLLDLYIRSQGLDKNGLKEHCRERPGAFPSKDALQRLSRRVFLRTLDTTLGQVLLRLAALEQDIPKAQDLEMLSGVKLNIRGFKNNIHCMAQLLPGSSETTEPTPTSPGASPSPTPTLDTFQRRLEGCRFLHGYHRFMRSVGQVFREWGKSLSRSRR
